Consider one substance from PMC9474506.

The target in assay [1] is Flag-tagged PU.1 F203Y (human) (UniProt P17947).
Assay [2] addresses Flag-tagged PU.1 Q202L (human) (UniProt P17947).
For assay [3], the target named is Flag-tagged PU.1 Y252N (human) (UniProt P17947).
Assay [4] addresses Flag-tagged PU.1 wild-type (human) (UniProt P17947).

“myc-tagged c-Jun (from UniProt P05412 1-331) (natural protein)”: the figures for the luciferase activity of the human M-CSFR promoter reporter, F9 cells, PU.1 mutant co-transfected with c-Jun, fold activation in assay [1], in assay [2] and in assay [3] were 5 fold, 5 fold and 3.5 fold, respectively. The substance further returned a luciferase activity of the human M-CSFR promoter reporter, F9 cells (no endogenous c-Jun), PU.1 co-transfected with c-Jun, fold activation in assay [4] of 25 fold.
